This data set can be described thus: self-splicing fitness, log relative to wild type (ln ratio); higher = more splicing; Tetrahymena group I intron in knt gene, E. coli kanamycin selection, DiMSum; sequences stand for … in CUCUCU…GGAGGGAAAAGUUAUCAGGCAUGCACCUGGUAGCUAGUCUUUAAACCAAUAGAUUGCAUCGGUUUAAAAGGCAAGACCGUCAAAUUGCGGGAAAGGGGUCAACAGCCGUUCAGUACCAAGUCUCAGGGGAAACUUUGAGAUGGCCUUGCAAAGGGUAUGGUAAUAAGCUGACGGACAUGGUCCUAACCACGCAGCCAAGUCCUAAGUCAACAGAUCUUCUGUUGAUAUGGAUGCAGUUCACAGACUAAAUGUCGGUCGGGGAAGAUGUAUUCUUCUCAUAAGAUAUAGUCGGACCUCUCCUUAAUGGGAGCUAGCGGAUGAAGUGAUGCAACACUGGAGCCGCUGGGAACUAAUUUGUAUGCGAAAGUAUAUUGAUUAGUUUUGGAGUACUCGUGGUCG
The method in brief: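 Six replicate transformations of E. coli BL21(DE3) with a pET-22b(+) library were grown overnight at 37°C or 30°C. The library randomised all eight P1ex-region intron nucleotides, the intron lying in the knt kanamycin-resistance gene, and plates were LB agar with or without 25 μg/mL kanamycin plus 100 μg/mL carbenicillin, 50 μM IPTG and 0.2% rhamnose. Pooled colonies were amplicon-sequenced on an Illumina HiSeq 2500, and fitness is the DiMSum error-weighted combination of wild-type-normalised replicate fold changes, kanamycin versus none.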

± gives the uncertainty stated by the source.

As for UCGUAGCAAUAUUACGCUUG, the “self-splicing fitness (ln)” value reads like this: (30 °C) -2.53 ± 0.17; (37 °C) -0.409 ± 0.14. The matching figures for UCGUAGCAAUAUUACGCUUU: -2.74 ± 0.14 and -2.4 ± 0.15. Consider UCGUAGCAAUAUUACGGCUC, for which the “self-splicing fitness (ln)” value (37 °C) is -1.44 ± 0.24. As to UCGUAGCAAUAUUACGGGGC, the “self-splicing fitness (ln)” value is -2.26 ± 0.2 (30 °C) and -2.55 ± 0.27 (37 °C).

On to UCGUAGCAAUAUUACGGGGU, for which the “self-splicing fitness (ln)” value was -3.35 ± 0.23 (30 °C) and -2.35 ± 0.25 (37 °C). For UCGUAGCAAUAUUACGGGUU the same measures were -3.23 ± 0.18 and -2.38 ± 0.23. Regarding UCGUAGCAAUAUUACGUCAG, the “self-splicing fitness (ln)” value (30 °C) was -3.66 ± 0.48 and the “self-splicing fitness (ln)” value (37 °C) is -1.89 ± 0.29. The matching figures for UCGUAGCAAUAUUACGUCCU: -2.04 ± 0.21 and -1.63 ± 0.31. For UCGUAGCAAUAUUACGUUGG the same measures were -2.59 ± 0.17 and -0.973 ± 0.17. For UCUAAGCAAUAUUACGAACU the same measures were -2.55 ± 0.11 and -2.26 ± 0.15. UCUAAGCAAUAUUACGAAGA: the “self-splicing fitness (ln)” value reads like this: (30 °C) -1.29 ± 0.14; (37 °C) -0.678 ± 0.13.

With UCUAAGCAAUAUUACGAGUC, the “self-splicing fitness (ln)” value reads like this: (30 °C) -3.41 ± 0.3; (37 °C) -2.93 ± 0.3.

In the case of UCUAAGCAAUAUUACGCAUG, the “self-splicing fitness (ln)” value reads like this: (30 °C) -1.88 ± 0.095; (37 °C) -2.07 ± 0.12.

Turning to UCUAAGCAAUAUUACGCCAA, the “self-splicing fitness (ln)” value is -1.47 ± 0.32 (30 °C) and -0.954 ± 0.23 (37 °C).

As for UCUAAGCAAUAUUACGCCAU, the “self-splicing fitness (ln)” value by setting is: (30 °C) -3.76 ± 0.46; (37 °C) -2.37 ± 0.42.

Take UCUAAGCAAUAUUACGCCGC: the “self-splicing fitness (ln)” value (30 °C) is -2.69 ± 0.29. For UCUAAGCAAUAUUACGCCUC, the “self-splicing fitness (ln)” value was -3.67 ± 0.35 (30 °C) and -2.98 ± 0.47 (37 °C). For the sequence UCUAAGCAAUAUUACGCGAU, the “self-splicing fitness (ln)” value is -4.31 ± 0.33 (30 °C) and -3.83 ± 0.36 (37 °C). Regarding UCUAAGCAAUAUUACGCGCC, the “self-splicing fitness (ln)” value (37 °C) was -2.67 ± 0.38.

On to UCUAAGCAAUAUUACGCGGA, for which the “self-splicing fitness (ln)” value reads like this: (30 °C) -2.69 ± 0.3; (37 °C) -2.47 ± 0.24. Turning to UCUAAGCAAUAUUACGCUGG, the “self-splicing fitness (ln)” value is, setting by setting: (30 °C) -2.53 ± 0.12; (37 °C) -2.92 ± 0.24. For the sequence UCUAAGCAAUAUUACGGCUG, the “self-splicing fitness (ln)” value by setting is: (30 °C) -0.983 ± 0.21; (37 °C) -1.68 ± 0.24. For UCUAAGCAAUAUUACGGGCC the same measures were -3.14 ± 0.33 and -2.09 ± 0.33. For UCUAAGCAAUAUUACGGUGU the same measures were -1.75 ± 0.083 and -1.34 ± 0.093.

Consider UCUAAGCAAUAUUACGUCAC, for which the “self-splicing fitness (ln)” value (30 °C) is -2.47 ± 0.24 and the “self-splicing fitness (ln)” value (37 °C) was 0.446 ± 0.28. The matching figures for UCUAAGCAAUAUUACGUGAA: -1.68 ± 0.088 and -0.923 ± 0.099.

Regarding UCUAAGCAAUAUUACGUUAA, the “self-splicing fitness (ln)” value is -3.72 ± 0.32 (30 °C) and -1.67 ± 0.2 (37 °C). For UCUAAGCAAUAUUACGUUAU the same measures were -3.25 ± 0.24 and -2.31 ± 0.27. For the sequence UCUAAGCAAUAUUACGUUUC, under “37 °C”, the “self-splicing fitness (ln)” value is -2.3 ± 0.26. For UCUCAGCAAUAUUACGAAUC, the “self-splicing fitness (ln)” value (30 °C) was -3.99 ± 0.39 and the “self-splicing fitness (ln)” value (37 °C) was -2.58 ± 0.22.

For UCUCAGCAAUAUUACGACCC, for the setting “37 °C”, the “self-splicing fitness (ln)” value is -1.98 ± 0.23. As to UCUCAGCAAUAUUACGACCU, the “self-splicing fitness (ln)” value runs as follows: (30 °C) -1.84 ± 0.18; (37 °C) -0.921 ± 0.22. The matching figures for UCUCAGCAAUAUUACGAUAG: -2.43 ± 0.15 and -0.737 ± 0.15.

On to UCUCAGCAAUAUUACGAUUA, for which the “self-splicing fitness (ln)” value is -0.806 ± 0.11 (30 °C) and -0.539 ± 0.12 (37 °C). For UCUCAGCAAUAUUACGAUUG the same measures were -3.43 ± 0.17 and -2.07 ± 0.17.

As for UCUCAGCAAUAUUACGCAGA, the “self-splicing fitness (ln)” value (30 °C) was -2.73 ± 0.49. On to UCUCAGCAAUAUUACGCAUC, for which the “self-splicing fitness (ln)” value is, setting by setting: (30 °C) -3.51 ± 0.21; (37 °C) -2.32 ± 0.2. For UCUCAGCAAUAUUACGCGCC the same measures were -3.46 ± 0.25 and -1.25 ± 0.19.

Consider UCUCAGCAAUAUUACGGAAG, for which the “self-splicing fitness (ln)” value reads like this: (30 °C) -1.82 ± 0.18; (37 °C) -2.93 ± 0.3.

Regarding UCUCAGCAAUAUUACGGAAU, the “self-splicing fitness (ln)” value by setting is: (30 °C) -3.04 ± 0.26; (37 °C) -1.85 ± 0.21.

The record behind these values is the supplement of paper PMC7877785.
